What was measured:
[1] = test system: MIA PaCa-2 cells; experiment: Cellular imaging (CLSM) of FITC-labelled molecules; type: cell-based; conditions: FITC-labelled molecules, MIA PaCa-2 cells, 1 h incubation, CLSM
Method: To further confirm this hypothesis, the M1 and M2 were equally labeled by FITC for cell imaging (Fig. 5b). To simulate the dynamic physiological condition, the cell culture medium was replaced every 15 min. After 1 h of incubation with M1 and M2 at the same molecule molar concentration, there occurred significant differences between the two molecules (Fig. 5c). […] The huge difference can be explained by the fact that the secondary assembly rate broke the balance between the targeted ligand and receptor, and thus tended to a stable assembly interaction. The retention efficiency depended on the assembly rate constant Ka. Meanwhile, the rapid dynamic assembly of BIVA probe in situ around the cell membrane, and contributed to the efficient formation and retention of nanofibers on the cell profile. When the incubation time was delayed up to 2 h, some components could be endocytosed into the cells, but most of them were found on the membranes (Supplementary Fig. 18). […] Then, the isolated cells were collected and lysed, the extracted cell membrane fragments were stained with ThT. […] In order to verify the influence of the addition of the targeting module of the probe molecules, we explored the imaging of R-M1 and M4 on cells.
Fig. 5 The BIVA effect with enhanced targeting to pancreatic tumor cell for boundaries imaging. a Illustration of BIVA effect: active targeting and assembly/aggregate induced retention (AIR) effect. b Chemical structure of FITC labeling. c 2D and 3D confocal images of M2 with active targeting property and M1 with BIVA effect on MIA PaCa-2 cells after incubation for 1 h. d The distribution of M1 on MIA PaCa-2 cell. e ThT staining of the lysed cell membrane of MIA PaCa-2. f, Illustration of migration inhibition after treated by BIVA probe. g The image of the migrated cells after treatment of PBS (blank), M2, M4, and M1. Scale bar: 100 μm. h The pie diagram of quantitative statistical calculation of the migrated cells (blue) in different groups. The blank control was set as 100% migrated cells.
MIA PaCa-2 cells were digested with trypsin, counted with cell counting plate, diluted to 1 × 10^4 with DMEM medium, and 1 mL to 1 cm diameter confocal microscope dish was taken. The cells were incubated in […] atmosphere for 24 h. The medium containing M1 and M2 (50 μM) was replaced and incubated with the cells for 2 h. The cells were washed with PBS for 3 times. CLSM (Zeiss 710) was used to image cells under 40 × objective, excitation = 488 nm, and emission >520 nm.
Supplementary Fig. 19 ∣ CLSM images of Miapaca-2 cells treated with different molecules or M1 under different conditions. […]

[2] = test system: orthotopic pancreatic tumor (MIA PaCa-2); experiment: Ex vivo organ biodistribution, orthotopic pancreatic tumor model; conditions: orthotopic tumor mice, i.v. 16 mg/kg, 12 h
Method: (§1) To evaluate the imaging property of BIVA probe, the orthotopic pancreatic tumor mice model was built. After intravenous injected M1 and M2 molecules with a dose of 16 mg/kg for 12 h, the mice were sacrificed. […] Then, all the important organs were dissected for ex vivo imaging. […] Upon the individual differences, we validated 6 mice under surgery to induce orthotopic tumor in pancreatic head. […] As known, the FAP-α was a membrane located protein, overexpressed on tumor associate fibroblast cell and pancreatic cell surface.

[3] = test system: orthotopic pancreatic tumor (MIA PaCa-2); experiment: Signal in small orthotopic tumor area versus healthy spleen area; type: in vivo; conditions: orthotopic pancreatic tumor mice, i.v. 16 mg/kg, 12 h
Method: as §1

[4] = test system: MIA PaCa-2 tumor; experiment: In vivo photoacoustic imaging; design: species or system mice; conditions: 12 h after i.v. injection, 16 mg/kg
Method: The MIA PaCa-2 tumor-bearing mice were constructed for in vivo photoacoustic imaging of M1. After intravenously injected with M1 (16 mg/kg) through tail vein, the PA images of mice were acquired with MOST (mode: MOST invision 128) at 12 h post injection.
Supplementary Fig. 22∣ 3D reconstruction PA images of tumor-bearing mice injected with M1 (16 mg/kg) through tail
vein.PA images of mice were acquired with MOST (mode: MOST 128) at 12 h post injection.
(1 picture or pasted object on this page, not shown here)

[5] = design: species or system mice; conditions: mouse, in vivo, iv, 16 mg/kg
Text: The acute toxicity evaluation of M1 to mice were verified by blood biochemistry, hemograms, and histological analysis. The representative biomarkers of liver function included alanine aminotransferase (ALT), alkaline phosphatase (ALP), aspartate aminotransferase (AST), total protein (TP), and albumin concentration (ALB). […] In addition, the hematological assessment results including creatinine (CREA), white blood cells (WBC), red blood cells (RBC), hematocrit (HCT), mean corpuscular volume […], mean corpuscular hemoglobin […], mean corpuscular hemoglobin concentration (MCHC), red cell volume distribution width-coefficient of variation (RDW-CV), platelet (PLT)and mean platelet volume (MPV) were carried out (Fig. 8b). All the above indicators in PBS group and M1 group appeared normal, which was basically consistent with the normal range reported in the literature. Then the mice from PBS group and M1 group were sacrificed for the further histological section analysis of the significant organs. After Hematoxylin and Eosin (H&E) staining, the slices of heart, liver, spleen, lung, kidney, and pancreas were compared and evaluated (Fig. 8c).
Fig. 8 Acute toxicity evaluation. a Liver function indicators: alanine aminotransferase (ALT), alkaline phosphatase (ALP), aspartate aminotransferase (AST), total protein (TP) and albumin concentration (ALB). […] Staining: H&E; Injection dose of M1. (i.v. administration): 16 mg/kg; Administration time: 24 h. Scale bar 200 μm.
The female Balb/c nude mice (6–8 weeks, n = 3) were sacrificed for blood and major organs collection after treated with M1 at a dose of 16 mg/kg on the 24 h. The histology evaluation of major organs was performed by Google biotechnology (Wuhan) Co. LTD. The blood biochemistry and haematology analyses were carried out by Vital River Laboratory Animal Technology Co. Ltd.

[6] = mouse, in vivo, iv, 16 mg/kg

For mPEG-GPAKLVFFGC(IR783)GRGD [M1], which “fluorescence signal on the cell membrane” value [1] is on record?
Its value is “higher fluorescence retention rate on the cell membrane”.

What about the “signal accumulation in tumor relative to M2” value [2] of the same substance?
The value was “twice”.

And the “Average radiant efficiency, spleen” value ([2]; average of n = 3)?
Its value is 203.333 P/sec.

And the “fluorescence signal on tumor relative to surrounding spleen tissue (signal-to-background)” value [3]?
Its value is “over 9 folds”.

What about the “accumulation in tumor by photoacoustic imaging” value [4] of the same substance?
Its value is “more accumulation in tumor than that of M2”.

What about the “hematological assessment (CREA, WBC, RBC, HCT, MCV, MCH, MCHC, RDW-CV, PLT, MPV)” value [5] of the same substance?
The value was “normal”.

And the “hepatic toxicity (ALT, ALP, AST, TP, ALB)” value [5]?
Its value is “no obvious hepatic toxicity”.

What about the “organ damage in H&E slices of heart, liver, spleen, lung, kidney, pancreas” value [5] of the same substance?
The value was “no noticeable organ damage and tissue injury”.

And the “blood circulation half-life (t1/2)” value [6]?
Its value is 1.83 ± 0.05 h.

— paper PMC8776730 (Nature Communications, 2022)
